Test results reported in patent US20210324069A1 (PROGASTRINE ET CANCERS S R L, published 2021).

Biological target: T1, human progastrin (human)
T1 construct: 80-residue progastrin; also called hPG; PG
T1 chain: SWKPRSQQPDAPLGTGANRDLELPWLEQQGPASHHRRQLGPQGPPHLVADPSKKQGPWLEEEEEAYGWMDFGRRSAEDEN
Experiment: epitope mapping (no details given)

Binder	binding result
mAb3 (antibody, V domains shown, Murine monoclonal antibody from a hybridoma; also called hybridoma 6B5B11C10) VH: EVQLQQSGTVLARPGASVKMSCKASGYIFTSYWVHWVKQRPGQGLEWIGGFYPGNSDSRYNQKFKGKATLTAVTSASTAYMDLSSLTNEDSAVYFCTRRDSPQYWGQGTTLTVSS VL: DVLMTQTPLSLPVSLGDQASISCRSSQSIVHSNGNTYLEWYLQKPGQSPKLLIYKVSNRFSGVPDRFSGSGSGTDFTLKISRLEAEDLGVYYCFQGSHVPFTFGGGTKLEIK	binds
mAb4 (antibody, V domains shown, Murine monoclonal antibody from a hybridoma; also called hybridoma 20D2C3G2) VH: QVQLQQSGAELMKPGASVKISCKATGYTFSSSWIEWLKQRPGHGLEWIGEFLPGSGSTDYNEKFKGKATFTADTSSDTAYMLLSSLTSEDSAVYYCATDGNYDWFAYWGQGTLVTVSA VL: DLVMTQTPLSLPVSLGDQASISCRSSQSLVHSSGVTYLHWYLQKPGQSPKLLIYKVSNRFSGVPDRFSGSGSGTDFTLKISRVEAEDLGVYFCSQSTHVPPTFGSGTKLEIK	binds
mAb16 (antibody, V domains shown, Murine monoclonal antibody from a hybridoma; also called hybridoma 1E9D9B6) VH: QVQLQQSGAELVKPGASVKLSCKASGYTFTSYYMYWVKQRPGQGLEWIGEINPSNGGTNFNEKFKSKATLTVDKSSSTAYMQLSSLTSEDSAVYYCTRGGYYPFDYWGQGTTLTVSS VL: not shown	binds
mAb19 (antibody, V domains shown, Murine monoclonal antibody from a hybridoma; also called hybridoma 1B3B4F11) VH: DVQLQESGPGLVKPSQSLSLTCTVTGYSITSDYAWNWIRQFPGNKLEWMGYISFSGYTSYNPSLKSRISVTRDTSRNQFFLQLTSVTTEDTATYYCAREVNYGDSYHFDYWGQGTIVTVSS VL: QLALTQSSSASFSLGASAKLTCTLSSQHRTYTIEWYQQQSLKPPKYVMEVKKDGSHSTGHGIPDRFSGSSSGADRYLSISNIQPEDEAIYICGVGDAIKGQSVFVFGGGTKVTVL	binds
mAb13 (antibody, V domains shown, Murine monoclonal antibody from a hybridoma; also called hybridoma 2C6C3C7) VH: EVQLVESGGGLVQPGGSLKLSCAASGFIFSSYGMSWVRQSPDRRLELVASINTFGDRTYYPDSVKGRFTISRDNAKNTLYLQMTSLKSEDTAIYYCARGTGTYWGQGTTLTVSS VL: not shown	binds
